These results are taken from patent EP4725967A1 (Nanjing Probio Biotech Co., Ltd., dated 2026).

Assay [1] has as its target T1, human CCR8 (human, UniProt P51685 1-355).
T1 construct: whole, on cells; also called hu-CCR8; CC chemokine receptor 8
As to the kind of experiment: flow cytometry on HEK293/hu-CCR8 cells, chimeric antibody (FIG. 1B). (Flow cytometry measures light scatter and fluorescence of single cells or particles in a stream.)

For assay [2], the target named is T1, human CCR8. Nature of the assay: flow cytometry, hybridoma supernatant on HEK293/hu-CCR8 cells.
In assay [3] the target is T1, human CCR8. As to the kind of experiment: flow cytometry on HEK293/hu-CCR8 cells, chimeric antibody (FIG. 1A).
Assay [4] concerns the target T1, human CCR8. Nature of the assay: flow cytometry on HEK293/hu-CCR8 cells (FIG. 5A).

T1 sequence (P51685 whole entry): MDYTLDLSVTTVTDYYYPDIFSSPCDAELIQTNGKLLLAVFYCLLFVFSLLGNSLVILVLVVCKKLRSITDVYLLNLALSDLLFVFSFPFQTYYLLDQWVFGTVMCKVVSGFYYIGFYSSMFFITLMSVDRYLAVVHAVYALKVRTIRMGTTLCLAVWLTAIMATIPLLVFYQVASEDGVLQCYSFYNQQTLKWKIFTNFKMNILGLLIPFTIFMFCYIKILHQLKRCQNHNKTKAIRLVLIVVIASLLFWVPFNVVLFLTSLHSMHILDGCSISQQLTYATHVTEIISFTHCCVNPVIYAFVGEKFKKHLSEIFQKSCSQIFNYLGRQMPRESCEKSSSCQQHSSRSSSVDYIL

B1: chimeric antibody 224E9A3 (antibody, human IgG1, kappa, V domains shown)
VH: EVQLVESGGGLVQPKGSLKLSCAASGFTFNTYAMYWVCQAPGKGLEWVARIRSKSNNYATYYADSVKDRFTISRDDSQSMLYLQMNNLKTEDTAMYYCVRGGRGNYLYAMDYWGQGTSVTVSS
VL: DIVMTQAAPSVPVTPGESVSISCRSSKSLLHSNGNTYLYWFLQRPGQSPQLLIYRMSNLASGVPDRFSGSGSGSAFTLRISRVEAEDVGVYYCMQHLEYPFTFGSGTKLEIKR
notes: Murine variable regions on human IgG1/kappa
Regarding B1, the binding result in assay [1] is recorded as “binds”.

B2: antibody produced by monoclonal clone 224E9A3 (murine, hybridoma) (antibody, V domains shown)
VH: EVQLVESGGGLVQPKGSLKLSCAASGFTFNTYAMYWVCQAPGKGLEWVARIRSKSNNYATYYADSVKDRFTISRDDSQSMLYLQMNNLKTEDTAMYYCVRGGRGNYLYAMDYWGQGTSVTVSS
VL: DIVMTQAAPSVPVTPGESVSISCRSSKSLLHSNGNTYLYWFLQRPGQSPQLLIYRMSNLASGVPDRFSGSGSGSAFTLRISRVEAEDVGVYYCMQHLEYPFTFGSGTKLEIK
notes: Mouse antibody in hybridoma supernatant
Turning to B2, in assay [2], the binding result was “binds”.

B3: chimeric antibody 117G9F9 (antibody, human IgG1, kappa, V domains shown)
VH: EVQLVESGGGLVQPKGSLKLSCAASGFSFNTYAMNWVRQAPGKGLEWVARIRSKSNYYATYYADSVKDRFTISRDDSESMLYLQMNNLKTEDTAMYYCVRGGNSYGSSYFDYWGQGTTLTVSS
VL: DIVMTQAAPSVPVTPGESVSISCRSSKSLLHRNGNTYLYWFLQRPGQSPQLLIYRMSNLASGVPDRFSGSGSGTAFTLRISRLEAEDVGVYYCMQHLEYPFTFGAGTKLELKR
notes: as for B1
Regarding B3, the binding result in assay [3] is recorded as “binds”.

B4: antibody produced by monoclonal clone 154G7C3 (murine, hybridoma) (antibody, V domains shown)
VH: QVQLQQSGAELVRPGASVTLSCKTSGYTFTDFEMHWVKQTPVHGLEWIGAFDPETGGTAYNQKFKGKAILTADKSSSTAYMELRSLTSEDSAVYYCTGRLRRHFDSWGQGTTLTVSS
VL: DVVMTQTPLSLPVSLGDQASISCRSSQSLVHSYGNTYLHWYLQKPGQSPKLLIYKVSNRFSGVPDRFSGSGSGTDFTLKISRVEAEDLGVYFCSQSTHVPFTFGSGTKLEIK
notes: Mouse antibody in hybridoma supernatant; Taking 27/28 as murine rests only on the order of listing
Take B4: in assay [2], the binding result is listed as “binds”.

B5: chimeric antibody 154G7C3 (antibody, human IgG1, kappa, V domains shown)
VH: QVQLQQSGAELVRPGASVTLSCKTSGYTFTDFEMHWVKQTPVHGLEWIGAFDPETGGTAYNQKFKGKAILTADKSSSTAYMELRSLTSEDSAVYYCTGRLRRHFDSWGQGTTLTVSS
VL: DVVMTQTPLSLPVSLGDQASISCRSSQSLVHSYGNTYLHWYLQKPGQSPKLLIYKVSNRFSGVPDRFSGSGSGTDFTLKISRVEAEDLGVYFCSQSTHVPFTFGSGTKLEIKR
notes: as for B1
In the case of B5, the binding result in assay [3] is “binds”.

B6: antibody produced by monoclonal clone 117G9F9 (murine, hybridoma) (antibody, V domains shown)
VH: EVQLVESGGGLVQPKGSLKLSCAASGFSFNTYAMNWVRQAPGKGLEWVARIRSKSNYYATYYADSVKDRFTISRDDSESMLYLQMNNLKTEDTAMYYCVRGGNSYGSSYFDYWGQGTTLTVSS
VL: DIVMTQAAPSVPVTPGESVSISCRSSKSLLHRNGNTYLYWFLQRPGQSPQLLIYRMSNLASGVPDRFSGSGSGTAFTLRISRLEAEDVGVYYCMQHLEYPFTFGAGTKLELK
notes: Mouse antibody in hybridoma supernatant; Taking 31/32 as murine rests only on the order of listing
Turning to B6, the binding result in assay [2] is on record as “binds”.

B7: humanized antibody 154G7C3-VH1.1-VL2 (antibody, human IgG1, kappa, V domains shown)
VH: QVQLVQSGAEVKKPGASVKVSCKVSGYTFTDFEMHWVRQAPGKGLEWIGAFDPETGGTAYNQKFKGRVTMTEDTSTDTAYMELSSLRSEDTAVYYCTGRLRRHFDSWGQGTLVTVSS
VL: DIVMTQSPLSLPVTPGEPASISCRSSQSLVHSYGNTYLHWYLQKPGQSPQLLIYKVSNRFSGVPDRFSGSGSGTDFTLKISRVEAEDVGVYYCSQSTHVPFTFGQGTKLEIKR
notes: Human IgG1/kappa
Turning to B7, the binding result in assay [4] is “binds”.

B8: humanized antibody 117G9F9-VH2.1-VL1 (antibody, human IgG1, kappa, V domains shown)
VH: EVQLVESGGGLVKPGGSLRLSCAASGFSFNTYAMNWVRQAPGKGLEWVGRIRSKSNYYATYYADSVKDRFTISRDDSKNTLYLQMNSLKTEDTAVYYCVRGGNSYGSSYFDYWGQGTLVTVSS
VL: DIVMTQSPLSLPVTPGEPASISCRSSKSLLHRNGNTYLYWYLQKPGQSPQLLIYRMSNLASGVPDRFSGSGSGTDFTLKISRVEAEDVGVYYCMQHLEYPFTFGQGTKLEIKR
notes: Human IgG1/kappa
Turning to B8, the binding result in assay [4] was “binds”.
